Measured values from the DeepSol protein solubility set.

Assay: soluble on expression in E. coli; label from the status in PepcDB or PDB records

Soluble on expression in E. coli, soluble:
MNYEIKQEEKRTVAGFHLVGPWEQTVKKGFEQLMMWVDSKNIVPKEWVAVYYDNPDETPAEKLRCDTVVTVPGYFTLPENSEGVILTEITGGQYAVAVARVVGDDFAKPWYQFFNSLLQDSAYEMLPKPCFEVYLNNGAEDGYWDIEMYVAVQPKHH
MSLTGRAFAIPLRTRFRGITVREGMLVRGAAGWGEFSPFAEYGPRECARWWAACYEAAELGWPAPVRDTVPVNATVPAVGPEEAARIVASSGCTTAKVKVAERGQSEANDVARVEAVRDALGPRGRVRIDVNGAWDVDTAVRMIRLLDRFELEYVEQPCATVDELAEVRRRVSVPIAADESIRRAEDPLRVRDAEAADVVVLKVQPLGGVRAALRLAEECGLPVVVSSAVETSVGLAAGVALAAALPELPYACGLATLRLLHADVCDDPLLPVHGVLPVRRVDVSEQRLAEVEIDPAAWQARLAAARAAWEQVEREPGPEGHHHHHH
MSQEIQPQATQLQPFSQACENNKVPILAVLKSAFANTTRVLEIGSGTGQHAVYFATNLPQLFWQTSDQAEYLEGIKARCLLQGHQLGINNLGFPITLDVTAPWPVNGTHIDAVFSANTLHIMSKSMVEAFFNGLGEYLPQLNTLCIYGPFNYQGHYTSDSNRQFDHFLKQRDSESGIRDIEWIIALAQAQGLTLVEDIAMPTNNRLLHFKHLLALEHHHHHH
MSDLVSYHLDDGVATLTLNNGKVNAISPDVIIAFNAALDQAEKDRAIVIVTGQPGILSGGYDLKVMTSSAEAAINLVAQGSTLARRMLSHPFPIIVACPGHAVAKGAFLLLSADYRIGVAGPFSIGLNEVQIGMTMHHAGIELARDRLRKSAFNRSVINAEMFDPEGAMAAGFLDKVVSVEELQGAALAVAAQLKKINMNAHKKTKLKVRKGLLDTLDAAIEQDRQHML
MANQHFAKEAPETYWKTSTDLPSFPALQEDTECDVTIIGGGITGITTAYELTKRGFRVVLIEANQVLNGTTAHTTAKVTAQHDMIYDEFIRHFGLNHARLYYEANQNAIDYIKGIVDEHQIDCEWIEQDAYLYTANENAVQKIHTEHEAYTKLGIERDLIKDLPIPLGSKLALVMKNQAQFHPLQYLKALLEQIVQKGGRIYEETVALDIKKGERPEVVTKSRHAIKSRFIICCSHFPFYDGGGLYAARMYSDRSYVLAIKPKIEYPEGMYLSIDQPSVALRYTVVNGEKLILFSGVSHKTGQGKAMSTHYETLRQLAESTIGIESIPYYWSTQDLVTIDKIPFIGPMSENEDNILVATGFKKWGMTSSAVAATLLSDLVEKKENPYESIFTPSRFHLNPGLQKVISYNADVAKHLIKGKLEKPDVQFEDISPGEGKAVTINGRRAGAFRDETGCLHLVDTTCTHLGCEVEWNDSEHTWDCPCHGSRFKPSGEVVEGPAIKPLKQIDLDLEHHHHHH

Soluble on expression in E. coli, not soluble:
MGSDKIHHHHHHMTRGIALFFWNRKKATKKISPEPEAAQEVWQRKKYRTNYYTYNSAKERGSLRSKKQRKHEIGEYKLEVGLAHLPRCFRRLSNLLLGTKGRFHQIDHVLISPYGIFLLEANNLSGLIVGEETESKWYQAITWRVKTFPNPIMENQVRVQMLQELAGLDQTIPVFSYVTFNRSCSLKVFSGMVFYDIDLPASIMQLAQNQPAVLSDEEILELVERIEKINLTDLGLRNEYAARQRRERMQYRPKYGDIRCSICQKAVNERMARYCLNRPEKFAWKIYCEKHQREMTRVVRREGGREGHGPYPESTDSKKESMD
MGSDKIHHHHHHMLRKDIGIDLGTANTLVFLRGKGIVVNEPSVIAIDSTTGEILKVGLEAKNMIGKTPATIKAIRPMRDGVIADYTVALVMLRYFINKAKGGMNLFKPRVVIGVPIGITDVERRAILDAGLEAGASKVFLIEEPMAAAIGSNLNVEEPSGNMVVDIGGGTTEVAVISLGSIVTWESIRIAGDEMDEAIVQYVRETYRVAIGERTAERVKIEIGNVFPSKENDELETTVSGIDLSTGLPRKLTLKGGEVREALRSVVVAIVESVRTTLEKTPPELVSDIIERGIFLTGGGSLLRGLDTLLQKETGISVIRSEEPLTAVAKGAGMVLDKVNILKKLQGAG
MGSDKIHHHHHHMANSGQIRVGIGGWNFEPWEGTFYPDDLPKKRQLEFAGKELRTIEVNGTYYSSQKPATFAKWAAEVPDGFIFSLKASRFVTNRRVLSEAGESMERFLTQGLTELGDRLGPILWQFAPTKKFDAEDFEGFLKLLPEKQDGLKLRHVVEVRNPSFQVPDFVKLIEKYKVAVVLAEHADYPMIADVTGDFVYARLQKGSDEVKTCYPPKDLDRWAERLKTFAAGGEPDDLEKAAPERQPETAPRDVFAFFITSGKVNAPNGARELQKRVG
MKKLAFAITAASGAAAVLSHHDAEASTQHKVQSGESLWTIAQQYNTSVESIKQNNNLSNNMVFPGQVINVGGSASQNTSSNTSSSSASSHTVVAGESLNIIANKYGVSVDALMQANHLNGYLIMPNQILTIPNGGSGSGSGGTATQTSGNYTSPSFNHQNLYTEGQCTWYVFDKRSQAGKPISTYWSDAKYWASNAANDGYQVDNTPSVGAIMQSTPGPYGHVAYVERINGDGSILISEMNYANGPYNMNYRTIPASEVSSYAFIHLEHHHHHH
MGSDKIHHHHHHMDVRFINEQTIMIYFENKISEETYRNVTAMVRWIREKEILEIQDIVPSYRAVLIYFDEQAITSSKLIENLELNKFNEKNVHAVNQTNRIIKIPVQYGGTYGPDIEEVAKHNRITVEQVIEKHTSKPYLIYMLGFMPGFPYLGGLDEQLHTPRRNQPRLKIHAGSVGIANNQTGLYPSDSPGGWQIIGRTPLKVFSSEREPMSMYEAGEWIQFYAIDEQKFIQIERDISDGNFNVDDWVVIENVN
MTKLPQTQGVLNFIQKYLYNSTNYNFEDGSTQAINVPYPDSGVYENYILHYPDATSTELLDINIDQLYSEVMVLTDPKIERAYEYILEERDPGTSSTNILVTVGVE
LNLSGLSLSCEYQPFVCPHTKHIHGYEALARFYLGQGQAIAPNLVFEQLHENSNALAAVEFQAKTFQLKHAPARQSLFVNVDPHAANGVHTQKLLDLLSSHPQLTVEIIENTCISDAELANQLFHQFKTANLNVALDDIGAPHSMLSVDLMMNVDYLKFDRHWLNLVAEPHGIALLSALIEFGKRTGKQCILEGIETEAQLQLARELNVDLVQGFLFKP
MEQDTQHVKPLQTKTDIHAVLASNGRIIYISANSKLHLGYLQGEMIGSFLKTFLHEEDQFLVESYFYNEHHLMPCTFRFIKKDHTIVWVEAAVEIVTTRAERTEREIILKMKVLEEETGHQSLNCEKHEIEPASPESTTYITDDYERLVENLPSPLCISVKGKIVYVNSAMLSMLGAKSKDAIIGKSSYEFIEEEYHDIVKNRIIRMQKGMEVGMIEQTWKRLDGTPVHLEVKASPTVYKNQQAELLLLIDISSRKKFQTILQKSRERYQLLIQNSIDTIAVIHNGKWVFMNESGISLFEAATYEDLIGKNIYDQLHPCDHEDVKERIQNIAEQKTESEIVKQSWFTFQNRVIYTEMVCIPTTFFGEAAVQVILRDISERKQTEELMLKSEKLSIAGQLAAGIAHEIRNPLTAIKGFLQLMKPTMEGNEHYFDIVFSELSRIELILSELLMLAKPQQNAVKEYLNLKKLIGEVSALLETQANLNGIFIRTSYEKDSIYINGDQNQLKQVFINLIKNAVESMPDGGTVDIIITEDEHSVHVTVKDEGEGIPEKVLNRIGEPFLTTKEKGTGLGLMVTFNIIENHQGVIHVDSHPEKGTAFKISFPKK
MGSDKIHHHHHHMVKGLDMIFYLHGFDATSPGNHEKMRQLQFIDPDVRLLSYSTLHPKHDMQHLLKEVAKQMQHTDDPEPLMVGVGLGAYWAERIGFLNGLKSVLINPNLHPENNMQGKIDRPEEYADIASKCVSEFRLKNTHRAMCIFSVNDDVLDCKANAQELSEYYAIEWDDVQPHKFPQLAAHLPKIKAFKLA
MGSDKIHHHHHHMEKVKAILFDKDGTLMDFHSIWIKVAEELVAEYIKLYQLPQSMQPTLLKEIGVDGVFVHPRSAIAAGTSLDVAKGLCKYITSSKEEEMHEWVSEKLFALMYEHRSYMKMTADLPRILQSLKDRGFILGVVTADDFAPTELFLKQYQLETFFDYVVASDTFAAQKPDKRIIESFCERFHLKACEVAVVGDTPTDLYLAKNGDCYAIGVLSGTGNRQTLEPLADLVVQSVGDFISHSGEFVWEKGKSNV
MGSDKIHHHHHHMLKHADIWAAIDALARDHGLTASALARKAGLDPTTFNKSKRVTREGKPRWPSTESVAKVLEATGATMTAFVGYIEDTAQARQTANTIPLIGFAQAGDCGYFDDAGYPVGGSWDEIPFPEIGDPHAYALEVSGDSMEPLYRDGDVVIVSPAAGVRRGDRVVVRTTEGEVMVKQLVRQTAKRIELASINPAHPGRSLATEEVAWIARILWSSQ
MGHHHHHHSHMSSRGHSTLPRTLMAPRMISEGDIGGIAQITSSLFLGRGSVASNRHLLQARGITCIVNATIEIPNFNWPQFEYVKVPLADMPHAPIGLYFDTVADKIHSVSRKHGATLVHCAAGVSRSATLCIAYLMKFHNVCLLEAYNWVKARRPVIRPNVGFWRQLIDYERQLFGKSTVKMVQTPYGIVPDVYEKESRHLMPYWGI
MGSDKIHHHHHHMSLANRTTSSAYRLFNLRLESKTLLSPSLARCVFTGPEVRQMKLDAPDQRIKLLFASESGELTPMTVSDTWYQDYLALPRERRPILRTYTLRSVSRDLQQATIDFVLHGDTGPASSWAGHAKPGDALQIVAPNAEADGASGGYEWAPHDGVEQVLLIADETALPAAMGILEQLATQPSPPSVQAFFEVPKAADCVTPSDFPFAQIHWLPREETGSTIWGERLLYAVQQDVKIPASACINRDDIAQETPEDELLWERATAHRPFYAWVAGESSAIKRLRRYLLDERHLDKETINFMAYWSHR
MSLLKVRLCPAERPEAMLIDAHQHFWLMKDRAGQWPPPSLAAIYRDFLPTDLSPLLTAAGVSGTVLVQTMETAADTDFMLELAENTDFIKGVVGWVDMKSAEVTAEIARRAKHPAFKGVRPMLQGMEDVAWIDDAALNAAVEALVKHGLVFDALVLPPNLPHLLSFASKHPELPVVIDHGAKPLIATGHYRDWRRNMAALAARPNVHCKLSGLLTERGEQRPEAVRPYAETILELFGGDRVIFGSDWPVLRLAGDFQGWLDFCRDIVPAKDHAAVFGGNAIRFYSLTDREGHHHHHH
MGLLKALLGFDRRDIETLARSNEENRRRIEALEAALARLEERISSISQALGRDARSTESLQGVEKEGGRETEYEGHNGTVEEGMLEDEGIIISHLEKGDATPSELIRDTGLSKNRVYGVLKRLVERGIVEKRRDGRRVVYSLRRVEAQADAPG
MKMAKSEDERLAEEWAAALGEDPNAPDIDVDEILAAPLEELKNTAPPITDDERRKLDTIMDIPVTISMEVGRSKISIRNLLQLNQGSVVELDRIAGESLDVMVNGTLIAHGEVVVVNDKFGIRLTDVISQTERIKKLR
MGSDKIHHHHHHMSKIVALYNNKGGVSKTTTNFNLGVYLSQQGKRVLMVDCDPQCNLTELFFASRDDLEEPDVQLPGTSIYDALLPRFKGHQGRIEQSGIEVSEHSLYSSLFLFRGDLEFSRAETYLGTSWSQAVTENIHEKNTYIVFNKLMKDIGSARGYDYILCDVGPSTGAITKTVIISCDEIVIPLVPDRFCYQAVKLLGSVISEWIENHKIISDSLVPFGIEPFEGNPKLAGTVLQNFKVHAGSKVKESYIKWQKKITEEIQSSLCKENGFSPKVGFNIEEPYTASIKDVAVLAPVAQLFGRAIFDIEQEHTKEASSNGQMYYGTVWQPWLDRMSEYKEEIAKIAEAIS
